Measurements published in patent publication US20260166154A1, “METHODS FOR TREATING OBESITY” (AMGEN INC., priority 2022, published 2026).

Key:
[1] = Phase 1 SAD/MAD clinical study: body weight, BMI, waist circumference; type: in vivo, human; conditions: for decrease in body weight: MAD 420 mg Q4W
Description: Eligible participants were women of non-reproductive potential and men aged 18 to 65 years with a body mass index (BMI) between 30.0 kg/m2 and 40.0 kg/m2 and HbA1c≤6.5% and/or a fasting glucose of […]125 mg/dl. Participants had normal vital signs, 12-lead electrocardiogram results and clinical laboratory tests at the time of randomization.
(§1) Enrollment into the SAD and MAD cohorts was sequential.
(§2) No missing data was imputed.

[2] = Phase 1 SAD/MAD clinical study (NCT04478708): pharmacokinetics; type: in vivo, human
Source text: as §1, §2

[3] = Predicted exposure multiples based on NOAEL established in mice; design: species or system mouse; conditions: NOAEL 150 mg/kg in mice
Source text: (§3) The rationale for dose selection for Part C is based on the available PK data from this ongoing FIH study cohorts 1 to 11 (Part A and Part B) and the NOAEL exposures established based on 13-week GLP repeat-dose studies in mouse and cynomolgus monkeys.

[4] = Predicted exposure multiples based on NOAEL established in cynomolgus monkeys; design: species or system cynomolgus monkey; conditions: NOAEL 120 mg/kg in cynomolgus monkeys
Source text: as §3

[5] = Phase 1 MAD cohorts: pharmacodynamic markers (fasting glucose, glucagon, HbA1c, hs-CRP); type: in vivo, human; conditions: for hs-CRP reduction: day 127
Source text: as §1, §2

[6] = Phase 1 SAD/MAD clinical study: safety and tolerability (TEAEs, vital signs)
Description: This was a first-in-human, double-blind, randomized, placebo-controlled study comprised of two parts: single ascending dose (SAD) and multiple ascending dose (MAD) in participants with obesity.
Participants were randomly assigned to receive AMG133 or placebo in a ratio of 3:1. […] The MAD evaluated 3 doses given every 4 weeks on Days 1, 29 and 57. […] Enrollment into the SAD and MAD cohorts was sequential. Subsequent cohorts were dosed after the dosing regimen in the preceding cohort had been recommended by the Dose Level Review Team (DLRT) to be safe and well tolerated based on the safety and laboratory data through at least day 15. […] Placebo was provided as normal saline, the volume matching the investigational drug at each dose level.
The primary endpoints were the participant incidence of treatment-emergent adverse events, changes in laboratory safety tests, vital signs, and 12-lead electrocardiograms. […] The exploratory endpoints were pharmacodynamic parameters including, but not limited to, concentrations of fasting glucose, insulin, c-peptide, glucagon,, hemoglobin A1c, changes in body weight, waist circumference, and BMI.
The sample size for this trial was not based on any statistical inferences. As the trial was an exploratory first-in-human study with a small sample size, all pharmacokinetic, pharmacodynamic and safety parameters were analyzed descriptively. Participants who withdrew from the study prior to day 15 in the SAD or day 36 in the MAD were replaced so that the target numbers of participants for safety review and data collection would be achieved; replacement participants were assigned to receive the same treatment as the withdrawn participant. […] The safety analysis set was the same as the full analysis set. […] No missing data was imputed.

[7] = Intact AMG 133, cohort 12, 420 mg SC
[8] = Intact AMG 133, cohort 13, 420 mg SC
[9] = Total AMG 133, cohort 12, 420 mg SC
[10] = Total AMG 133, cohort 13, 420 mg SC

Substance: maridebart cafraglutide [AMG 133]
- maximal reduction of body weight from baseline ([1]; MAD 140 mg Q4W, after 3 doses, day 78): 7.44%
- reduction of body weight from baseline ([1]; MAD 140 mg Q4W, post-dose day 7): 1.97%
- waist circumference ([1]; MAD 140 mg and 420 mg): dose-dependent decrease
- waist circumference ([1]; MAD 280 mg): fluctuations in waist circumference changes
- decrease in body weight ([1]; day 7): −4.86%
- decrease in body weight ([1]; day 85): −14.5%
- duration of body weight reduction ([1]; MAD cohorts, multiple doses): maintained until end of study day 207
- change from baseline in BMI ([1]; SAD and MAD): followed a similar pattern as the change in body weight
- duration of body weight decrease ([1]; all SADs except lowest dose 21 mg): maintained until day 150
- change in mean body weight from baseline ([1]; all dose levels (SADs and MADs)): decreases in mean body weight from baseline
- maximal decrease of body weight from baseline ([1]; single dose 21 mg, day 29): 2.39%
- mean percent change of body weight from baseline ([1]; single dose 21 mg, post-dose day 6): −1.59%
- mean percent change of body weight from baseline ([1]; single dose 840 mg, day 6): −2.85%
- maximal decrease of body weight from baseline ([1]; single dose 840 mg, day 92): 8.24%
- dose proportionality of pharmacokinetics ([2]; doses 21 mg to 840 mg): dose-proportional
- pharmacokinetics linearity based on Cmax ([2]; preliminary review, FIH SAD and MAD, AUC data pending): linear, dose proportional kinetics
- Predicted Exposure Multiples Mouse AUC [3, 7]: ~42.4 fold
- Predicted Exposure Multiples Mouse Cmax [3, 7]: ~43 fold
- Predicted Exposure Multiples Mouse AUC [3, 8]: ~40.6 fold
- Predicted Exposure Multiples Mouse Cmax [3, 8]: ~41.3 fold
- Predicted Exposure Multiples Mouse AUC [3, 9]: 51 fold
- Predicted Exposure Multiples Mouse Cmax [3, 9]: 54.3 fold
- Predicted Exposure Multiples Mouse AUC [3, 10]: ~47.5 fold
- Predicted Exposure Multiples Mouse Cmax [3, 10]: ~50.9 fold
- Predicted Exposure Multiples Monkey AUC [4, 8]: ~43.2 fold
- Predicted Exposure Multiples Monkey AUC [4, 9]: 48.9 fold
- Predicted Exposure Multiples Monkey AUC [4, 10]: ~45.5 fold
- hs-CRP reduction ([5]; MAD 140 mg): normalized to baseline
- glucagon ([5]; MAD 280 mg, day 85 and day 127): greatest reduction in glucagon was observed at day 85 which normalized by day 127
- fasting glucose ([5]; MAD 420 mg, safety follow up (day 127)): lower glucose levels were maintained
- fasting glucose ([5]; MAD 140 and 280 mg, safety follow up (day 127)): returned to above baseline
- fasting glucose ([5]; MAD 140 and 420 mg, day 29 and 85): decreased in a dose-responsive manner
- hs-CRP reduction ([5]; MAD 280 and 420 mg): sustained until day 127
- hs-CRP change from baseline ([5]; MAD cohorts): dose-responsive decrease
- HbA1c levels ([5]; MAD, all three dose groups, normal range at baseline): decreased in all three dose groups but trended towards baseline at day 127
- heart rate ([6]; MAD cohorts): the 280 mg cohort had higher heart rates than the 140 mg or 420 mg cohort
- nausea and vomiting ([6]; MAD cohorts): all participants who received AMG 133 experienced mild nausea and vomiting
- subjects reporting mild GI-related adverse events (mainly nausea, vomiting, diarrhea) ([6]; MAD cohorts 7 to 10, after the first dose): Approximately 90%
- subjects experiencing GI-related adverse events ([6]; MAD cohorts 7 to 10, after the second dose): less than 5%
- serious adverse events or deaths ([6]; MAD cohorts 7 to 10, any dose): no serious adverse events or deaths reported after any of the doses
- subjects who discontinued the study prior to receiving the second dose ([6]; MAD trial): Approximately 26%
- serious TEAEs, TEAEs leading to permanent discontinuation, severe TEAEs ([6]; SAD and MAD): No serious TEAEs, TEAEs leading to permanent discontinuation, or severe TEAEs were reported
- tolerability ([6]; SAD and MAD participants): tolerated AMG 133 well
- dyspepsia ([6]; SAD cohorts): more frequently reported with lower doses (70 mg and 140 mg)
- heart rate ([6]; SAD cohorts): increased with a single dose of 280, 560 or 840 mg AMG 133 but not in a dose-dependent manner
- nausea and vomiting ([6]; SAD cohorts): reported in participants treated with ≥70 mg AMG 133
- severity of GI-related TEAEs ([6]; SAD cohorts): all GI-related TEAEs were mild except one participant in the 140 mg cohort had moderate GI symptoms
- serious adverse events or deaths ([6]; SAD cohorts 1 to 6 and 11): no serious adverse events or deaths have been reported
- subjects who withdrew consent due to GI-related adverse events ([6]; cohort 9, after 420 mg dose on day 1): 50%
- blood pressure ([6]; single dose or multiple doses): No meaningful changes in blood pressure
